The text below walks through data of patent US8546537B2, “Streptavidin having low immunogenicity and use thereof” (The University of Tokyo, priority 2009, dated 2013).

Residue numbers refer to the chain shown, from its start. In names and notes the source's numbering stands.

The target in series [1] is ROBO1 (Homo sapiens, UniProt Q9Y6N7). Briefly: Isothermal Titration calorimetry (ITC) of B5209B mouse-scFv-mcSA414 and ROBO1. It counts as binding. An excerpt:
By Isothermal Titration calorimetry (ITC), the interaction of B5209B mouse-scFv-mcSA414 and ROBO1 was subjected to […] analysis.
For orientation: ITC needs no label: the signal is the heat of the interaction.

The nature of series [2]: Differential Scanning calorimetry (DSC) thermal stability. It counts as physicochemical. The note with it: PBS. As for the experimental part:
By Differential Scanning calorimetry (DSC), the thermal stability of B5209B mouse-scFv-mcSA414 was evaluated. PBS was used as a solvent. […] Accordingly, the temperature necessary for denaturation of the scFV domain of B5209B mouse-scFv-SA is assumed to be Tm 51.4° C., and the temperature necessary for the complete denaturation of a single molecule thereof is assumed to be Tm 108° C. Moreover, since the temperature for dissociation of a streptavidin domain tetramer was not detected, it is assumed that the streptavidin was completely denatured without the dissociation of a tetramer.
On the technique in general: DSC measures the heat that a sample takes up or gives off during a temperature scan.

The nature of series [3]: Thermal shift assay of streptavidin proteins. It counts as physicochemical. Conditions: at 100° C., 10 μM protein, 1×PBS, guanidine-HCl 0 to 2 M, SYPRO Orange. As for the experimental part: The following 5 types of proteins, a native streptavidin, mcSA040, mcSA072, mcSA314 and mcSA414, which had been purified in accordance with Example 2, were subjected to a thermal shift assay (Vedadi, (2006), Proc Natl Sci USA., 103(43), 15835-15840). Each sample was prepared in a real-time PCR tube (PCR Tube Strip, Flat Cap Strip; manufactured by BIO-RAD), so that the samples could have the following final concentrations. That is, SYPRO Orange was 5000-fold diluted, the concentration of each protein was set at 10 μM, and the buffer was set at 1×PBS. Moreover, for the purpose of accelerating the heat denaturation of each protein, the concentration of a guanidine-HCl solution was set at 0 M, 0.5 M, 1M and 2 M as a final concentration. The reaction volume was set at 20 μl. The CFX96 Real-Time PCR detection system (manufactured by BIO-RAD) was used as a measurement device. As a program mode of the CFX96 Real-Time PCR detection system, a program mode for use in FRET detection was used. The reaction and detection were carried out by a program for increasing the temperature by 0.5° C. every 10 seconds.

Series [4] is described as follows: Kinetics analysis of interaction between streptavidin protein and biotin using Biacore biosensor. The note with it: for Association rate constant ka / Dissociation rate constant kd: Biacore 3000, biotinylated mouse antibody captured, 1:1 binding model; for Kd: Biacore 3000, obtained from kd/ka, read-out: Dissociation constant Kd. It counts as binding. The procedure:
As a ligand (a substance to be attached to a sensor chip) used for a Biacore (registered trademark) biosensor, an anti-mouse IgG antibody (manufactured by GE Healthcare Biosciences) was used. On the other hand, as analytes (substances to be supplied to the flow channel system), a biotinylated mouse antibody and various types of mutant streptavidins were prepared, and intermolecular interaction was then analyzed using Biacore (registered trademark) 3000 (a biosensor based on the principle of surface plasmon resonance; manufactured by GE Healthcare Biosciences). The anti-mouse IgG antibody was immobilized on all of the flow cells of a CM5 sensor chip according to an amine coupling method. The amount of the antibody immobilized on each flow cell was 8000 RU. Subsequently, as references, non-biotinylated mouse antibodies were captured onto Flow Cells 1 and 3, and biotinylated mouse antibodies were captured onto Flow Cells 2 and 4. Various types of streptavidins were loaded in a running buffer (HBS-EP; manufactured by GE Healthcare Biosciences) on Flow Cells 1 and 2, or 3 and 4, at a flow rate of 20 μl/min for 2 minutes. Thereafter, dissociation of each sample was monitored for 7 minutes. Thereafter, a reproduction operation was carried out using a 10 mM glycine-HCl buffer (pH 1.7) (manufactured by GE Healthcare Biosciences), and repeat measurement was then carried out. Using the analysis software BIAevaluation ver. 4.1, a reaction kinetics analysis was performed on a 1:1 binding model based on the obtained sensorgram, so as to calculate an association rate constant (ka) and a dissociation rate constant (kd). A dissociation constant (Kd) was obtained from kd/ka.
The results of the kinetics analysis of the intermolecular interaction of a recombinant streptavidin and a biotin, which was carried out using Biacore (registered trademark) 3000 (a biosensor based on the principle of surface plasmon resonance; manufactured by GE Healthcare Biosciences), are as shown in Table 2.
(In general: Surface plasmon resonance follows binding to a sensor surface in real time, without labels.)

Chain of ROBO1 (Q9Y6N7 26-1651, species assumed): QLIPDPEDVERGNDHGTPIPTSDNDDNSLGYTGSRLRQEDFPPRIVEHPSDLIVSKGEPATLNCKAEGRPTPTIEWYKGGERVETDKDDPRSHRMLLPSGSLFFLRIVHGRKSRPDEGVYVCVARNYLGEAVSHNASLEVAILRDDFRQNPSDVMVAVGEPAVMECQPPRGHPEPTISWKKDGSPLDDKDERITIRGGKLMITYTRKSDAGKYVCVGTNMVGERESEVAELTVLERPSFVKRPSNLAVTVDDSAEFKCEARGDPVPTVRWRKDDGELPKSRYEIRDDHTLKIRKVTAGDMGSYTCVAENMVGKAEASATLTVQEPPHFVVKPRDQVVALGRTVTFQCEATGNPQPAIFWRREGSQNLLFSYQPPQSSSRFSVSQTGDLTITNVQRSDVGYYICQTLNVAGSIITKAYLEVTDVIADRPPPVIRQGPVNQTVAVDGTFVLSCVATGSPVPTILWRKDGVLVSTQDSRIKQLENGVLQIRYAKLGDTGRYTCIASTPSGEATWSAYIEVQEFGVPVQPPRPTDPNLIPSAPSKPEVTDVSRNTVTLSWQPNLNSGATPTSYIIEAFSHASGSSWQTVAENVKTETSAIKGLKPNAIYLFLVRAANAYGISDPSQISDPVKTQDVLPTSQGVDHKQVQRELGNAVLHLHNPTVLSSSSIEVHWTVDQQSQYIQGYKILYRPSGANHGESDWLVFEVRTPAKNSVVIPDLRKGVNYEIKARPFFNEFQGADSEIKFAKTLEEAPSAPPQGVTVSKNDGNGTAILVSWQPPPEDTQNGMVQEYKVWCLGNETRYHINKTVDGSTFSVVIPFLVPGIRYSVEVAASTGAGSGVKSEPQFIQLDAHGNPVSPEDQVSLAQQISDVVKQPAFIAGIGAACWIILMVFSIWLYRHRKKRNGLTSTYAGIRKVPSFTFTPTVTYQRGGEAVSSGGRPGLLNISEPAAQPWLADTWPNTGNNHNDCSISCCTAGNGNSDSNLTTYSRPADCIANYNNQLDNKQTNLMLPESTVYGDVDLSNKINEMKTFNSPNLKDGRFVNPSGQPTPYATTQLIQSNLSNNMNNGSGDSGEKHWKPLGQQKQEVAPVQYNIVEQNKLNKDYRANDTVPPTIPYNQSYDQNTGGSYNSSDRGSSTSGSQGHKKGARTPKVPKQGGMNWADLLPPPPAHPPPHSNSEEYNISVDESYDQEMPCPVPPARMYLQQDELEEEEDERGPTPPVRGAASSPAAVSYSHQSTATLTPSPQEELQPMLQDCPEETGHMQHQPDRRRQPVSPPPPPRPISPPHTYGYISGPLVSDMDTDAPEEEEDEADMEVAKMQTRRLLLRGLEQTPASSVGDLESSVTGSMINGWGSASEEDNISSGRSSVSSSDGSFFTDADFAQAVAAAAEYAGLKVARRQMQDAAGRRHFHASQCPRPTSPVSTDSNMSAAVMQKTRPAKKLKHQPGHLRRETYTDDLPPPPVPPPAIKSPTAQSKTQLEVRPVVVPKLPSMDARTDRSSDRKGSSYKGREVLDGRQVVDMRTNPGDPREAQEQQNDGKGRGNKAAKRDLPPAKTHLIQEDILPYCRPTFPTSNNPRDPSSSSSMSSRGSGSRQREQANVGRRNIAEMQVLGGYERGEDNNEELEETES

B1: B5209B mouse-scFv-mcSA414: fusion of anti-ROBO1 monoclonal antibody B5209B mouse scFv and mcSA414, SEQ ID NO: 16 (protein, listed as Mus sp.)
chain: MAEVQLVESGGGVVQPGGSLKLSCAASGFTFSTYDMSWVRQTPDKRLELVATINSNGGSTYYPDSVKGRFTSSRDNAKNILYLQMSSLKSEDTAMYYCAREALLRPPYYALDYWGQGTSVTVSSAGGGGSGGGGSGGGGSDILDIQMTQSPASLSASVGETVTITCGASENIYGALTWYQRKQGKSPQLLIYGAINLADDKSSRFSGSGSGRQYSLKISSLHPDDVATYYCQNVLSTPFTFGSGTKLEIKAAGSSGSGSAAEAGITGTWSNQLGSTFIVTAGADGALTGTYESAVGNAESRYVLTGRYDSAPATDGSGTALGWTVAWKNNSKNAHSATTWSGQYVGGADAKINTQWLLTSGTTQANAWKSTLVGHDTFTKVKPSAASGARHHHHHH
On to B1, for which, in series [1], the “binding ratio: molecules of ROBO1 bound to a tetramer” value was 2, the “change in ΔH compared with scFV” value is given as “no significant change”, the “reduction in affinity compared with scFV” value is listed as “approximately one order of magnitude” and the “ΔS value compared with scFV” value is “approximately 1/40”. In addition, in series [1] (25° C., PBS), the “amount of enthalpy change (ΔH)” value was -3.85 kcal/mol and the “amount of entropy change (ΔS)” value is −22 J/mol·K. Moreover, in series [2], the “temperature for dissociation of a streptavidin domain tetramer” value is on record as “not detected”, the “temperature necessary for denaturation of the scFV domain (Tm)” value stood at 51.4 °C and the “temperature necessary for the complete denaturation of a single molecule (Tm)” value worked out at 108 °C.

B2: mcSA040: mutant core streptavidin with Y83S, R84K, E116Q (protein)
core streptavidin subunit: AEAGITGTWYNQLGSTFIVTAGADGALTGTYESAVGNAESRYVLTGRYDSAPATDGSGTALGWTVAWKNNSKNAHSATTWSGQYVGGAEARINTQWLLTSGTTQANAWKSTLVGHDTFTKVKPSAAS
As to B2, the “thermal stability compared with native streptavidin” value in series [3] was “thermal stability equivalent to that of the native streptavidin”.

B3: mcSA224: mutant core streptavidin with Y22T, Y83A, R84K, E101D, R103K, E116Q (protein)
core streptavidin subunit: B2 core streptavidin subunit with Y10T, S71A, E89D, R91K
As for B3, in series [4], the “Association rate constant ka” value was 2.11 × 10^5 M^−1 S^−1, the “Dissociation rate constant kd” value is given as 1.01 × 10^−4 S^−1 and the Kd came out at 0.481 nM.

B4: mcSA030: mutant core streptavidin with Y83S, R84K, E116N (protein)
core streptavidin subunit: B2 core streptavidin subunit with Q104N
Regarding B4, in series [4], the “Dissociation rate constant kd” value is given as 1.55 × 10^−4 S^−1 and the Kd was 0.399 nM.

B5: mcSA424: mutant core streptavidin with Y22T, Y83S, R84K, E101D, R103K, E116Q (protein)
core streptavidin subunit: B2 core streptavidin subunit with Y10T, E89D, R91K
B5: in series [4], the “Association rate constant ka” value was 1.32 × 10^5 M^−1 S^−1, the “Dissociation rate constant kd” value is 1.12 × 10^−4 S^−1 and the Kd amounted to 0.845 nM.

B6: mcSA414: mutant core streptavidin with Y22S, Y83S, R84K, E101D, R103K, E116Q (protein)
core streptavidin subunit: B2 core streptavidin subunit with Y10S, E89D, R91K
Consider B6, for which, in series [3], the “thermal stability compared with native streptavidin” value is on record as “thermal stability equivalent to that of the native streptavidin”. In series [4], the “Association rate constant ka” value was 2.31 × 10^5 M^−1 S^−1, the “Dissociation rate constant kd” value is reported as 5.18 × 10^−5 S^−1 and the Kd was 0.243 nM.

B7: mcSA314: mutant core streptavidin with Y22S, Y83S, R84K, E101D, R103K, E116N (protein)
core streptavidin subunit: B2 core streptavidin subunit with Y10S, E89D, R91K, Q104N
With B7, the “thermal stability compared with native streptavidin” value in series [3] is “thermal stability equivalent to that of the native streptavidin”. In addition, in series [4], the “Association rate constant ka” value is 5.99 × 10^5 M^−1 S^−1, the “Dissociation rate constant kd” value was 1.58 × 10^−4 S^−1 and the Kd amounted to 0.264 nM.

B8: mcSA214: mutant core streptavidin with Y22S, Y83A, R84K, E101D, R103K, E116Q (protein)
core streptavidin subunit: B2 core streptavidin subunit with Y10S, S71A, E89D, R91K
For B8, in series [4], the “Association rate constant ka” value is reported as 2.64 × 10^5 M^−1 S^−1, the “Dissociation rate constant kd” value is listed as 1.21 × 10^−4 S^−1 and the Kd was 0.459 nM.

B9: mcSA010: mutant core streptavidin with Y83A, R84K, E116N (protein)
core streptavidin subunit: B2 core streptavidin subunit with S71A, Q104N
As for B9, in series [4], the “Dissociation rate constant kd” value is reported as 8.96 × 10^−5 S^−1 and the Kd turned out to be 0.225 nM.

B10: mcSA324: mutant core streptavidin with Y22T, Y83S, R84K, E101D, R103K, E116N (protein)
core streptavidin subunit: B2 core streptavidin subunit with Y10T, E89D, R91K, Q104N
Take B10: in series [4], the “Association rate constant ka” value is on record as 3.26 × 10^5 M^−1 S^−1, the “Dissociation rate constant kd” value was 7.18 × 10^−5 S^−1 and the Kd turned out to be 0.22 nM.

B11: mcSA124: mutant core streptavidin with Y22T, Y83A, R84K, E101D, R103K, E116N (protein)
core streptavidin subunit: B2 core streptavidin subunit with Y10T, S71A, E89D, R91K, Q104N
In the case of B11, in series [4], the “Association rate constant ka” value is reported as 3.06 × 10^5 M^−1 S^−1, the “Dissociation rate constant kd” value is 5.38 × 10^−5 S^−1 and the Kd came out at 0.176 nM.

B12: mcSA114: mutant core streptavidin with Y22S, Y83A, R84K, E101D, R103K, E116N (protein)
core streptavidin subunit: B2 core streptavidin subunit with Y10S, S71A, E89D, R91K, Q104N
Consider B12, for which, in series [4], the “Association rate constant ka” value is 3.61 × 10^5 M^−1 S^−1, the “Dissociation rate constant kd” value is given as 9.92 × 10^−5 S^−1 and the equilibrium dissociation constant (Kd) was 0.274 nM.

B13: mcSA020: mutant core streptavidin with Y83A, R84K, E116Q (protein)
core streptavidin subunit: B2 core streptavidin subunit with S71A
With B13, in series [4], the “Dissociation rate constant kd” value is 1.60 × 10^−4 S^−1 and the Kd was found to be 0.427 nM.

The Kd is the concentration at which binding is half-saturated.
